Data from article PMC1888833 (Nucleic Acids Research, 2007).

Experiments:
[1] = biological target: HpDnaBWt (Helicobacter pylori, UniProt O25916); settings: labelled compound; pH 7.5, 4 °C, UV 254 nm
[2] = biological target: HpDnaBDelN3 (Helicobacter pylori, UniProt O25916); settings: labelled compound; pH 7.5, 4 °C, UV 254 nm
[3] = biological target: the molecule itself; test: SEC

Molecule	UV cross-linking, SDS-PAGE, phosphorimager [1]	UV cross-linking, SDS-PAGE, phosphorimager [2]	stoichiometry N [3]
Nc1ncnc2c1ncn2[C@@H]1O[C@H](COP(=O)(O)OP(=O)(O)OP(=O)(O)O)[C@@H](O)[C@H]1O [∝-32PATP]	Wild-type, DelN2 and DelN3 showed ATP binding	Wild-type, DelN2 and DelN3 showed ATP binding	
HpDnaBDelN2 (N-terminal deletion mutant N2 of HpDnaB, lacking 133 N-terminal residues) (domain or fragment) AVEREVYALLNGSTIEGFRNIKEVLESAMDLITENQRKGSLEVTGIPTGFVQLDNYTSGFNKGSLVIIGARPSMGKTSLMMNMVLSALNDDRGVAVFSLEMSAEQLALRALSDLTSINMHDLESGRLDDDQWENLAKCFDHLSQKKLFFYDKSYVRIEQIRLQLRKLKSQHKELGIAFIDYLQLMSGSKATKERHEQIAEISRELKTLARELEIPIIALVQLNRSLENRDDKRPILSDIKDSGGIEQDADIVLFLYRGYIYQMRAEDNKIDKLKKEGKIEEAQELYLKVNEERRIHKQNGSIEEAEIIVAKNRNGATGTVYTRFNAPFTRYEDMPIDSHLEEGQETKVDYDIVTT			6
HpDnaBDelN3 (N-terminal deletion mutant N3 of HpDnaB, lacking 174 N-terminal residues) (domain or fragment) EVTGIPTGFVQLDNYTSGFNKGSLVIIGARPSMGKTSLMMNMVLSALNDDRGVAVFSLEMSAEQLALRALSDLTSINMHDLESGRLDDDQWENLAKCFDHLSQKKLFFYDKSYVRIEQIRLQLRKLKSQHKELGIAFIDYLQLMSGSKATKERHEQIAEISRELKTLARELEIPIIALVQLNRSLENRDDKRPILSDIKDSGGIEQDADIVLFLYRGYIYQMRAEDNKIDKLKKEGKIEEAQELYLKVNEERRIHKQNGSIEEAEIIVAKNRNGATGTVYTRFNAPFTRYEDMPIDSHLEEGQETKVDYDIVTT			2
Helicobacter pylori DnaB helicase, wild-type, full-length (enzyme, Helicobacter pylori (strain 26695), UniProt O25916 1-488, looked up) MDHLKHLQQLQNIERIVLSGIVLANHKIEEVHSVLEPSDFYYPPNGLFFEIALKLHEEDCPIDENFIRQKMPKDKQIKEEDLVAIFAASPIDNIEAYVEEIKNASIKRKLFGLANTIREQALESAQKSSDILGAVEREVYALLNGSTIEGFRNIKEVLESAMDLITENQRKGSLEVTGIPTGFVQLDNYTSGFNKGSLVIIGARPSMGKTSLMMNMVLSALNDDRGVAVFSLEMSAEQLALRALSDLTSINMHDLESGRLDDDQWENLAKCFDHLSQKKLFFYDKSYVRIEQIRLQLRKLKSQHKELGIAFIDYLQLMSGSKATKERHEQIAEISRELKTLARELEIPIIALVQLNRSLENRDDKRPILSDIKDSGGIEQDADIVLFLYRGYIYQMRAEDNKIDKLKKEGKIEEAQELYLKVNEERRIHKQNGSIEEAEIIVAKNRNGATGTVYTRFNAPFTRYEDMPIDSHLEEGQETKVDYDIVTT			6
HpDnaBMut (ATP binding site mutant, R204 to C in the WALKER A domain) (enzyme, Helicobacter pylori (strain 26695), UniProt O25916 1-488, looked up) MDHLKHLQQLQNIERIVLSGIVLANHKIEEVHSVLEPSDFYYPPNGLFFEIALKLHEEDCPIDENFIRQKMPKDKQIKEEDLVAIFAASPIDNIEAYVEEIKNASIKRKLFGLANTIREQALESAQKSSDILGAVEREVYALLNGSTIEGFRNIKEVLESAMDLITENQRKGSLEVTGIPTGFVQLDNYTSGFNKGSLVIIGACPSMGKTSLMMNMVLSALNDDRGVAVFSLEMSAEQLALRALSDLTSINMHDLESGRLDDDQWENLAKCFDHLSQKKLFFYDKSYVRIEQIRLQLRKLKSQHKELGIAFIDYLQLMSGSKATKERHEQIAEISRELKTLARELEIPIIALVQLNRSLENRDDKRPILSDIKDSGGIEQDADIVLFLYRGYIYQMRAEDNKIDKLKKEGKIEEAQELYLKVNEERRIHKQNGSIEEAEIIVAKNRNGATGTVYTRFNAPFTRYEDMPIDSHLEEGQETKVDYDIVTT			6
